In US20120238509A1:
Each block holds one binder with its values, some of them ahead of it. No end group written: not given here. *: point of attachment. Acm = CC(=O)NC*

Target: CRFR^2 expressed by A7r5 cells, P47866
Experiment: cell-based or functional assay

CRFR^2 expressed by A7r5 cells, P47866, sequence (P47866 20-411): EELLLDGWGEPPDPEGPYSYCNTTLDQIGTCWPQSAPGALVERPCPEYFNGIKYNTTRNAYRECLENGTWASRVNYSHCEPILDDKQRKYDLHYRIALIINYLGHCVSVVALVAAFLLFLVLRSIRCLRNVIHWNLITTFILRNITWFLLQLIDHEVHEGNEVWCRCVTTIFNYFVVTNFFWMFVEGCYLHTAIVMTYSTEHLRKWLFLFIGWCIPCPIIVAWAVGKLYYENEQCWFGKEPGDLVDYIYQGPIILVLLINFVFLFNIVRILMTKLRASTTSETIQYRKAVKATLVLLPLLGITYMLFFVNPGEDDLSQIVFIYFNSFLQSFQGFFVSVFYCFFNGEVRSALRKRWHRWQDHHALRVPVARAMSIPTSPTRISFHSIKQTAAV

cAMP A7r5 (EC50, nM): 0.07 nM
Binder: VILSLDVPIGLLRILLEQARYKAARNQAATNAQILAHV-NH2 [mUcn 2]

cAMP A7r5 (EC50, nM): 0.05 nM
Binder: RVILSLDVPIGLLRILLEQARYKAARNQAATNAQILAHV-NH2 [R^0-mUcn 2]

cAMP A7r5 (EC50, nM): 2.9 nM
Binder: IVLSLDVPIGLLQILLEQARARAAREQATTNARILARVGH-OH [hUcn 2-GH-OH]

cAMP A7r5 (EC50, nM): 0.53 nM
B1: mUcn 2 prohormone (peptide)
peptide: TPIPTFQLLPQNSLETTPSSVTSESSSGTTTGPSASWSNSKASPYLDTRVILSLDVPIGLLRILLEQARYKAARNQAATNAQILAHV
modifications: here or on the partner: amidated at the C-terminus

cAMP A7r5 (EC50, nM): 0.11 nM
Binder: IVLSLDVPIGLLQILLEQARARAAREQATTNARILARV-NH2 [hUcn 2]

cAMP A7r5 (EC50, nM): 0.027 nM
Binder: RIVLSLDVPIGLLQILLEQARARAAREQATTNARILARV-NH2 [R^0-hUcn 2]

cAMP A7r5 (EC50, nM): 0.09 nM
Binder: HPGSRIVLSLDVPIGLLQILLEQARARAAREQATTNARILARV-NH2 [SRP (HPGSR-hUcn 2)]

cAMP A7r5 (EC50, nM): 2.3 nM
B2: hUcn 2 prohormone (peptide)
peptide: IPTFQLRPQNSPQTTPRPAASESPSAAPTWPWAAQSHCSPTRHPGSRIVLSLDVPIGLLQILLEQARARAAREQATTNARILARV
modifications: here or on the partner: amidated at the C-terminus

cAMP A7r5 (EC50, nM): 13.9 nM
Binder: IVLSLDVPIGLLQILLEQARARAAREQATTNARILARVGHC-OH [hUcn 2-GHC-OH]

cAMP A7r5 (EC50, nM): 6.3 nM
Binder: IVLSLDVPIGLLQILLEQARARAAREQATTNARILARVG-OH [hUcn 2-G-OH]

cAMP A7r5 (EC50, nM): 9.5 nM
B3: [Cys^1, 51(Acm)]-hUcn2(1-51)-OH) (peptide)
peptide: C(Acm)SPTRHPGSRIVLSLDVPIGLLQILLEQARARAAREQATTNARILARVGHC(Acm)-OH

cAMP A7r5 (EC50, nM): 90.4 nM
Binder: IVLSLDVPIGLLQILLEQARARAAREQATTNARILARV-OH [hUcn 2-OH]
